In publication PMC3912200, “Structural and Functional Characterization of Cargo-Binding Sites on the μ4-Subunit of Adaptor Protein Complex 4” (PLoS ONE, 2014):
Substitutions are numbered along the chain they refer to. In names and notes the source's numbering stands.

B1: F188A: μ4 mutant, μ2-binding site, Y2H construct (protein)
chain: MISQFFILSSKGDPLIYKDFRGDSGGRDVAELFYRKLTGLPGDESPVVMHHHGRHFIHIRHSGLYLVVTTSENVSPFSLLELLSRLATLLGDYCGSLGEGTISRNVALVYELLDEVLDYGYVQTTSTEMLRNFIQTEAVVSKPFSLFDLSSVGLFGAETQQSKVAPSSAASRPVLSSRSDQSQKNEVALDVVERLSVLIASNGSLLKVDVQGEIRLKSFLPSGSEMRIGLTEEFCVGKSELRGYGPGIRVDEVSFHSSVNLDEFESHRILRLQPPQGELTVMRYQLSDDLPSPLPFRLFPSVQWDRGSGRLQVYLKLRCDLLSKSQALNVRLHLPLPRGVVSLSQELSSPEQKAELAEGALRWDLPRVQGGSQLSGLFQMDVPGPPGPPSHGLSTSASPLGLGPASLSFELPRHTCSGLQVRFLRLAFRPCGNANPHKWVRHLSHSDAYVIRI
modifications: left off: Gal4 activation domain, end not stated, kept
B2: D190S: μ4 mutant, μ2-binding site, Y2H construct (protein)
chain: B1 chain with A188F, D190S
modifications: left off: Gal4 activation domain, end not stated, kept
B3: K217A: μ4 mutant, μ2-binding site, Y2H construct (protein)
chain: B1 chain with A188F, K217A
modifications: left off: Gal4 activation domain, end not stated, kept
B4: W439S: μ4 mutant, μ2-binding site, Y2H construct (protein)
chain: B1 chain with A188F, W439S
modifications: left off: Gal4 activation domain, end not stated, kept
B5: R441A: μ4 mutant, μ2-binding site, Y2H construct (protein)
chain: B1 chain with A188F, R441A
modifications: left off: Gal4 activation domain, end not stated, kept
B6: S254K: μ4 mutant, μ4-binding site, Y2H construct (protein)
chain: B1 chain with A188F, S254K
modifications: left off: Gal4 activation domain, end not stated, kept
B7: S257Q: μ4 mutant, μ4-binding site, Y2H construct (protein)
chain: B1 chain with A188F, S257Q
modifications: left off: Gal4 activation domain, end not stated, kept
B8: T280A: μ4 mutant, μ4-binding site, Y2H construct (protein)
chain: B1 chain with A188F, T280A
modifications: left off: Gal4 activation domain, end not stated, kept
B9: T280R: μ4 mutant, μ4-binding site, Y2H construct (protein)
chain: B1 chain with A188F, T280R
modifications: left off: Gal4 activation domain, end not stated, kept

system: cytosolic tail of APP; assay: Yeast two-hybrid (Y2H) analysis of μ4 with the APP tail; assay type: binding; conditions: mutations at μ2-binding site; growth on -His plates, 30°C
Excerpt: The cloning of the tail of APP (residues 649–695), full-length human μ4, and all the other yeast two-hybrid (Y2H) constructs, and the cloning of the C-terminal domain of μ4 for expression in E. coli was described previously. To generate a construct for mammalian expression, full-length human μ4 was obtained by PCR amplification and cloned into the EcoRI and SalI sites of pEGFP-N1 (BD BiosciencesClontech, Mountain View, CA) including a stop-codon before the GFP coding sequence. The cloning of APP-GFP carrying the double mutation F615P/D664A was described previously. Single amino acid substitutions were introduced using the QuikChange mutagenesis kit (Stratagene, La Jolla, CA). Y2H assays were performed as previously described. A set of pCI-neo (Promega) constructs encoding hemagglutinin (HA)-epitope tagged wild-type or mutants of human μ4 was a generous gift of J. Bonifacino and R. Mattera (Cell Biology and Metabolism Program, NICHD, NIH). The nucleotide sequences of all recombinant constructs were confirmed by dideoxy sequencing.
Figure 1 Yeast two-hybrid analysis of the interaction of μ4 with the cytosolic tail of APP. (A) Superposition of the surface and ribbon representations of human wild-type μ4 C-terminal domain (pdb entry 3L81). The insets show an enlargement of the μ4-binding site and the putative μ2-binding site with residues chosen for the yeast two-hybrid (Y2H) analysis. The APP peptide (TYKFFEQ; stick model) bound to the μ4-binding site is in yellow, and the EGFR peptide (FYRALM; stick model; pdb entry 1BW8) superposed to the putative μ2-binding site is in magenta. (B) Sequence alignment of the C-terminal domain of the μ subunits of known crystal structure depicting critical residues at the corresponding μ2- and μ4-binding sites. Disordered loops are in yellow letters, and arrows and cylinders represent β-strands and α-helices, respectively. M.m., Mus musculus; R.n., Rattus norvegicus; H.s., Homo sapiens. (C) and (D) Yeast were co-transformed with plasmids encoding Gal4bd fused to the cytosolic tail of the amyloid precursor protein (APP) indicated on the left, and Gal4ad fused to wild-type or mutant μ4 constructs indicated on top of each panel. (C) Y2H analysis of μ4 with mutations on the YKFFE binding site (μ4-binding site). (D) Y2H analysis of μ4 with mutations on a putative YXXØ binding site (μ2-binding site). Mouse p53 fused to Gal4bd and SV40 large T antigen (T Ag) fused to Gal4ad were used as controls. Co-transformed cells were spotted onto His-deficient (-His) or His-containing (+His) plates and incubated at 30°C. Growth is indicative of interactions. Some mutations on either of the two sites affect the interaction of μ4 with the cytosolic tail of APP.

Row | Molecule | effect of mutation on interaction of the APP tail with μ4 (Y2H)
1 | B1 | little or no effect
2 | B2 | little or no effect
3 | B3 | little or no effect
4 | B4 | little or no effect
5 | B5 | little or no effect

same assay, conditions: mutations at μ4-binding site; growth on -His plates, 30°C

Row | Molecule | effect of mutation on binding to the APP YKFFE signal (Y2H)
6 | B6 | little or no effects
7 | B7 | little or no effects
8 | B8 | little or no effects
9 | B9 | little or no effects
